Laboratory results: publication doi:10.1101/2021.06.03.446896
“And” between values parts separate entries of the source, which are not always exact repeats. Equal entries are not always repeated.

T1: dMi-2 (118-238) (UniProt O97159 118-238)
T1 sequence: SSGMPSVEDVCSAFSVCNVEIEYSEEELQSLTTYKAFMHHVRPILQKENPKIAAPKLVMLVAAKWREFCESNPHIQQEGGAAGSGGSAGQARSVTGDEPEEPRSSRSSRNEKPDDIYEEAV

B1: Pgant35a #2 RNA (ssRNA)
RNA: UCUUCCGGGCGAUCCCAGACACUCGGCACAAGGUGUGCGAUCGCCAGGAGACCACGGAAGCGGAAAAUCUGCCCCAGGCCUCCAUAGUCAUGUGCUUCUA
B2: Hsp70Aa #2 RNA (ssRNA)
RNA: GAGGACAUGAAGCACUGGCCUUUCAAGGUUGUAAGCGACGGCGGAAAGCCCAAGAUCGGGGUGGAGUAUAAGGGUGAGUCCAAGAGAUUUGCCCCCGAGG
B3: Hsp70Aa #5 RNA (ssRNA)
RNA: GCAGGCCGAGAUUGAUCGCAUGGUGAACGAGGCUGAAAAGUACGCCGACGAGGACGAGAAGCAUCGCCAGCGAAUAACCUCUAGAAAUGCCCUGGAGAGC
B4: Hsp70Aa #1 RNA (ssRNA)
RNA: CUCACACACAAUGCCUGCUAUUGGAAUCGAUCUGGGCACCACCUACUCCUGCGUGGGUGUCUACCAACAUGGCAAGGUGGAGAUUAUCGCCAACGACCAG
B5: Pgant35a #5 RNA (ssRNA)
RNA: AAGUGCCACGAGAUGCUCGGCGAUCAGCAGUGGCGGCACACCCGCAACGCCAACAGUCCCGUCUACAACAUGGCCAAAGGCACCUGCCUCCGGGCAGCUG
B6: Pgant35a #4 RNA (ssRNA)
RNA: CUGCAUGUGCCGGGCGAGGAGUCCAAGAAGUCGGCGGCAGCGCCCAUCUUUCAGCCUUGGCACUCGCGAAAACGUAACUAUGUCGACACAUUCCAGCUGC
B7: Pgant35a #1 RNA (ssRNA)
RNA: UCGGCAGGAUGGAGGAUCGACGAAGGGAACGCAACGCCACGGGCCGAGCUGAGCUACCAGGCCAGGGUCACCGUCGGAUGCACUCCAAAUGCCAGCAUUA
B8: Pgant35a #3 RNA (ssRNA)
RNA: GUCAUUGGUGCACGCGAGGCCGUGGGCGAUGUGCUCGUCUUCCUCGACUCGCAUAUCGAGGUCAAUCAGCAGUGGCUGGAGCCGCUGCUGCGCCUCAUCA
B9: Hsp70Aa dsRNA (dsRNA)
RNA 1: not shown
RNA 2: not shown
B10: Hsp70Aa dsDNA (dsDNA)
DNA 1: not shown
DNA 2: not shown

What follows are binders tested against T2, dMi-2 WT (UniProt O97159 1-1982) (assay: EMSA).
T2 sequence (O97159 whole entry): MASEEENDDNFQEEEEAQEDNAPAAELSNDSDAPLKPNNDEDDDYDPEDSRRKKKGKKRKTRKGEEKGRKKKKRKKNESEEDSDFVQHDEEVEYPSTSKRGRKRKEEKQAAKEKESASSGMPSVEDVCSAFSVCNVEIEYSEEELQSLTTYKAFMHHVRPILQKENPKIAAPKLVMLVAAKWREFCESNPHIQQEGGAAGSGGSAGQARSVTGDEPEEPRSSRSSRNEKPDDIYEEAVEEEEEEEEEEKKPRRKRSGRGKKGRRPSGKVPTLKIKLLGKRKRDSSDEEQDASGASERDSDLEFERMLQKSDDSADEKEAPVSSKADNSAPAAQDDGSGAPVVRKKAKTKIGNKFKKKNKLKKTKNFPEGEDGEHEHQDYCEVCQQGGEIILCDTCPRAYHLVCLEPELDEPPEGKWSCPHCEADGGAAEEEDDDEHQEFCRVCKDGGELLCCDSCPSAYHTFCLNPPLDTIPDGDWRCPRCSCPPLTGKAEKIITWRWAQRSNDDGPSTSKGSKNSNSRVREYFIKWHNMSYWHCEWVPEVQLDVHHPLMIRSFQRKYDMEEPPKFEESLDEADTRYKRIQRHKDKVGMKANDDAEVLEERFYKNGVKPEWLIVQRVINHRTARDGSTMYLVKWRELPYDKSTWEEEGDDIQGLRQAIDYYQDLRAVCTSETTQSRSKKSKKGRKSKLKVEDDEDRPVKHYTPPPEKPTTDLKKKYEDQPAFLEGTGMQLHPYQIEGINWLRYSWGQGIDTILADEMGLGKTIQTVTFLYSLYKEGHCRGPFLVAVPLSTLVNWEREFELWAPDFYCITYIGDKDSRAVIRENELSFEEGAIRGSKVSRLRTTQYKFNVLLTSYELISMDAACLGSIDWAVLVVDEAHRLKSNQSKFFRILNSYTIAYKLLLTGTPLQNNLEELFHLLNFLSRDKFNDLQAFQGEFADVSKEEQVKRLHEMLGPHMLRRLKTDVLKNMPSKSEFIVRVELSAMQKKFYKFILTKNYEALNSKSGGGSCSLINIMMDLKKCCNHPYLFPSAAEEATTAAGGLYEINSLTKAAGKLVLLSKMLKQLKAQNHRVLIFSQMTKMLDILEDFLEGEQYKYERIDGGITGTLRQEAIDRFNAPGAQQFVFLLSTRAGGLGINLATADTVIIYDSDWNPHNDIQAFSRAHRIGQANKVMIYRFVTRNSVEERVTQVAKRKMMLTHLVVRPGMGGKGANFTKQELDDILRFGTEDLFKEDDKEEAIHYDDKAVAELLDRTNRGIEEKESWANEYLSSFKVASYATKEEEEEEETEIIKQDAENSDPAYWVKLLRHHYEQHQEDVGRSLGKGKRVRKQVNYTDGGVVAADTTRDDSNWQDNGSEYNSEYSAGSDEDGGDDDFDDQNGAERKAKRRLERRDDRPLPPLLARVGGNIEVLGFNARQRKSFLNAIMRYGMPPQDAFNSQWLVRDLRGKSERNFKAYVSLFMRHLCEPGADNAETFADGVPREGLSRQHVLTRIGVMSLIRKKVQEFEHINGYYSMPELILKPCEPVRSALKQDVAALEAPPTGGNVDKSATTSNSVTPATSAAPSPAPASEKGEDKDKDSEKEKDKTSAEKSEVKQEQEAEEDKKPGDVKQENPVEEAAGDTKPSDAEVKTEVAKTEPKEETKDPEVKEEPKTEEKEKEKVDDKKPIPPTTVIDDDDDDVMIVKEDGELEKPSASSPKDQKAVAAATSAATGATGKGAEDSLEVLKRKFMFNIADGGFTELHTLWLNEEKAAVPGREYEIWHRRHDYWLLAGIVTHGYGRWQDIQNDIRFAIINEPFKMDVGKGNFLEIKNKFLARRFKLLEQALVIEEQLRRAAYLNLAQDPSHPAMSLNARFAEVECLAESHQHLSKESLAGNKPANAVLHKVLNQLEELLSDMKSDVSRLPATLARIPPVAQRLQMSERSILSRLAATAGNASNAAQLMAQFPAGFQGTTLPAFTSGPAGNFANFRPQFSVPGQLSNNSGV

Binder | binding result
B1 | binds
B2 | binds
B3 | binds
B4 | binds
B5 | binds
B6 | binds
B7 | binds

Target: T2, dMi-2 WT
Test: EMSA
Remark: another data set of the same source

Binder | Kd
AAAAAAGGGGAAAAGGGGAAAAGGGGAAAAGGGGAAAAAA (structured_RNA) [(G4A4)4 RNA] | 80 nM
CCUACGGACUGGACAAGAACCUCAAGGGUGAGCGCAAUGU (ssRNA) [Hsp70Aa #6 RNA] | 310 ± 100 nM
GAGAGAGAGAGAGAGAGAGAGAGAGAGAGAGAGAGAGAGA (ssRNA) [(GA)20 RNA] | 70 nM and 80 nM
B8 | 630 ± 280 nM
B9 | 860 ± 100 nM
B10 | 820 ± 100 nM

The binders below were run against T1, dMi-2 (118-238) (assay: EMSA).

Binder | binding result
CCUACGGACUGGACAAGAACCUCAAGGGUGAGCGCAAUGU (ssRNA) [Hsp70Aa #6 RNA] | no binding
